Measured values published in patent US20240166737A1 (Janssen / Centocor, published 2024).
Blank lines part the entries; values can stand above or below the binder they belong to.

Key:
[1] = target: T1, recombinant CD3 (UniProt P07766 23-126); assay: SPR
T1 construct: also called CD3 (SPR)

[2] = target: T2, CD3 epsilon on human T-cells (human, UniProt P07766 23-207); assay: T cell binding
T2 construct: part of the TCR-CD3 complex on T cells; also called CD3 on T cells

[3] = target: T1, recombinant CD3; assay: SPR; lower end of the range
[4] = target: T1, recombinant CD3; assay: SPR; upper end of the range
[5] = target: human MSLN on the cell surface (human, UniProt Q13421 296-598); assay: flow cytometry (MFI PE) on OVCAR-8 cells
Chain of human MSLN on the cell surface (Q13421 other isoform, or with tags, fused parts or gaps): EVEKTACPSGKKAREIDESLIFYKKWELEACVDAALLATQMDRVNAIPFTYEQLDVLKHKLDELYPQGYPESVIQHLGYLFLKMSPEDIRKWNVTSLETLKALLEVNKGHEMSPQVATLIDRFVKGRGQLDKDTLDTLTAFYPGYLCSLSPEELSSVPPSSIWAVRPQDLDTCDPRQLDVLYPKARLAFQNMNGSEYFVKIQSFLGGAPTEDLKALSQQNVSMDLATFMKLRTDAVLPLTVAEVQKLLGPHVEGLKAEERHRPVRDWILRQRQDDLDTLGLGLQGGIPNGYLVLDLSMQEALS

T1 sequence (P07766 23-126): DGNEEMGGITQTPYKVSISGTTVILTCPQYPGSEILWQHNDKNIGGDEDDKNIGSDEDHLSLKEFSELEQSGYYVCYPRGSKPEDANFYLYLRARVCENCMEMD
T2 sequence (P07766 23-207 limits assumed): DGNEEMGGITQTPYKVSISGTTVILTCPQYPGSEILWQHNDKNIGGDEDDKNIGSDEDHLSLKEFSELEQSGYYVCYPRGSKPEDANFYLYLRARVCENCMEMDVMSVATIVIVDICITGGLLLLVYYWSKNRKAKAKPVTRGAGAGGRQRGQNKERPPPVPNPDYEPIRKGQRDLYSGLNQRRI

Kd [1]: 0.5 to 1 nM | EC50 [2]: 20 to 50 nM
B1: CD3W245-LH-ScFv (scFv)
scFv: DIQMTQSPSSLSASVGDRVTITCRARQSIGTAIHWYQQKPGKAPKLLIKYASESISGVPSRFSGSGSGTDFTLTISSLQPEDFATYYCQQSGSWPYTFGQGTKLEIKGGSEGKSSGSGSESKSTGGSEVQLVESGGGLVKPGGSLRLSCAASGFTFSRYNMNWVRQAPGKGLEWVSSISTSSNYIYYADSVKGRFTFSRDNAKNSLDLQMSGLRAEDTAIYYCTRGWGPFDYWGQGTLVTVSS

EC50 [2]: 1 to 3 nM | Kd [3]: ≥ 0.5 nM | Kd [4]: ≤ 1 nM
B2: CD3W245-HL-ScFv (scFv)
scFv: EVQLVESGGGLVKPGGSLRLSCAASGFTFSRYNMNWVRQAPGKGLEWVSSISTSSNYIYYADSVKGRFTFSRDNAKNSLDLQMSGLRAEDTAIYYCTRGWGPFDYWGQGTLVTVSSGGSEGKSSGSGSESKSTGGSDIQMTQSPSSLSASVGDRVTITCRARQSIGTAIHWYQQKPGKAPKLLIKYASESISGVPSRFSGSGSGTDFTLTISSLQPEDFATYYCQQSGSWPYTFGQGTKLEIK

EC50 (read off the curve) [5]: ~8 nM
B3: MNC3B192 (bispecific antibody)
chain 1: QSALTQPASVSGSPGQSITISCTGTSSNIGTYKFVSWYQQHPGKAPKVMIYEVSKRPSGVSNRFSGSKSGNTASLTISGLQAEDEADYYCVSYAGSGTLLFGGGTKLTVLGGSEGKSSGSGSESKSTGGSQVQLQQSGPGLVKPSQTLSLTCAISGDSVFNNNAAWSWIRQSPSRGLEWLGRTYYRSKWLYDYAVSVKSRITINPDTSKNQFSLQLNSVTPEDTAVYYCARGYSSSFDYWGQGTLVTVSS
chain 2: QVQLVESGPGQVKPSQTLSLTCAISGDSVSSNSAAWNWIRQSPSRGLEWLGRTYYRSKWYNDYAVSVKSRITINPDTSKNQFSLQLNSVTPEDTAVYYCARRDYSSGGFDYWGQGTTVTVSS
chain 3: not shown
